Data taken from patent publication US6034212.
Ends that are not written are not given here. * marks the point of attachment. Biotin = O=C1N[C@H]2[C@H](CS[C@H]2CCCCC(=O)*)N1

Legend:
[1] = molecular target: GST-WW-YAP fusion protein (WW domain of human YAP in pGEX-2TK) (human); test: competition of a fixed concentration of labelled GST-WW-YAP on blotted GST-…, densitometry (data not shown)
[2] = molecular target: GST-SH3-Yes fusion protein (Gallus gallus (Chicken)) (UniProt P09324); test: competition of labeled GST-YES-SH3 binding to blotted TrpE-YAP65

| Binder | IC50 [1] [nM] | concentration required to partially compete for binding [2] [µM] |
| --- | --- | --- |
| Biotin-GTPPPPYTVG [unlabelled decapeptide biotin-… containing the PY motif] | 750 | – |
| ISQSAPVKQPPPLAPQSPQGGV [PLAP peptide] | – | 200 |
